The values that follow come from publication PMC4609965 (2015).

The target of the assay is alpha-synuclein (Homo sapiens, UniProt P37840). As to the kind of experiment: NMR PRE titration.

B1: alpha-synuclein 125-140 (peptide)
chain: YEMPSEEGYQDYEPEA
For B1, the Kd – broadly, a measure of binding affinity in units of concentration – was about 500 µM.

B2: beta-synuclein 115-134 (peptide)
chain: EGESYEDPPQEEYQEYEPEA
As to B2, the Kd is about 100 µM.
